In PMC12815461 (2026):

B1: FLAG-tagged wild-type GMCL1 (germ cell-less protein-like 1) [human] / 53BP1 (p53-binding protein 1), endogenous in HEK293T [human (endogenous in HEK293T)] (parent complex)
chain 1: MGSLSSRVLRQPRPALAQQAQGARAGGSARRPDTGDDAAGHGFCYCAGSHKRKRSSGSFCYCHPDSETDEDEEEGDEQQRLLNTPRRKKLKSTSKYIYQTLFLNGENSDIKICALGEEWSLHKIYLCQSGYFSSMFSGSWKESSMNIIELEIPDQNIDVEALQVAFGSLYRDDVLIKPSRVVAILAAACLLQLDGLIQQCGETMKETVNVKTVCGYYTSAGTYGLDSVKKKCLEWLLNNLMTHQNVELFKELSINVMKQLIGSSNLFVMQVEMDIYTALKKWMFLQLVPSWNGSLKQLLTETDVWFSKQRKDFEGMAFLETEQGKPFVSVFRHLRLQYIISDLASARIIEQDAVVPSEWLSSVYKQQWFAMLRAEQDSEVGPQEINKEELEGNSMRCGRKLAKDGEYCWRWTGFNFGFDLLVTYTNRYIIFKRNTLNQPCSGSVSLQPRRSIAFRLRLASFDSSGKLICSRTTGYQILTLEKDQEQVVMNLDSRLLIFPLYICCNFLYISPEKKN
chain 2: MDPTGSQLDSDFSQQDTPCLIIEDSQPESQVLEDDSGSHFSMLSRHLPNLQTHKENPVLDVVSNPEQTAGEERGDGNSGFNEHLKENKVADPVDSSNLDTCGSISQVIEQLPQPNRTSSVLGMSVESAPAVEEEKGEELEQKEKEKEEDTSGNTTHSLGAEDTASSQLGFGVLELSQSQDVEENTVPYEVDKEQLQSVTTNSGYTRLSDVDANTAIKHEEQSNEDIPIAEQSSKDIPVTAQPSKDVHVVKEQNPPPARSEDMPFSPKASVAAMEAKEQLSAQELMESGLQIQKSPEPEVLSTQEDLFDQSNKTVSSDGCSTPSREEGGCSLASTPATTLHLLQLSGQRSLVQDSLSTNSSDLVAPSPDAFRSTPFIVPSSPTEQEGRQDKPMDTSVLSEEGGEPFQKKLQSGEPVELENPPLLPESTVSPQASTPISQSTPVFPPGSLPIPSQPQFSHDIFIPSPSLEEQSNDGKKDGDMHSSSLTVECSKTSEIEPKNSPEDLGLSLTGDSCKLMLSTSEYSQSPKMESLSSHRIDEDGENTQIEDTEPMSPVLNSKFVPAENDSILMNPAQDGEVQLSQNDDKTKGDDTDTRDDISILATGCKGREETVAEDVCIDLTCDSGSQAVPSPATRSEALSSVLDQEEAMEIKEHHPEEGSSGSEVEEIPETPCESQGEELKEENMESVPLHLSLTETQSQGLCLQKEMPKKECSEAMEVETSVISIDSPQKLAILDQELEHKEQEAWEEATSEDSSVVIVDVKEPSPRVDVSCEPLEGVEKCSDSQSWEDIAPEIEPCAENRLDTKEEKSVEYEGDLKSGTAETEPVEQDSSQPSLPLVRADDPLRLDQELQQPQTQEKTSNSLTEDSKMANAKQLSSDAEAQKLGKPSAHASQSFCESSSETPFHFTLPKEGDIIPPLTGATPPLIGHLKLEPKRHSTPIGISNYPESTIATSDVMSESMVETHDPILGSGKGDSGAAPDVDDKLCLRMKLVSPETEASEESLQFNLEKPATGERKNGSTAVAESVASPQKTMSVLSCICEARQENEARSEDPPTTPIRGNLLHFPSSQGEEEKEKLEGDHTIRQSQQPMKPISPVKDPVSPASQKMVIQGPSSPQGEAMVTDVLEDQKEGRSTNKENPSKALIERPSQNNIGIQTMECSLRVPETVSAATQTIKNVCEQGTSTVDQNFGKQDATVQTERGSGEKPVSAPGDDTESLHSQGEEEFDMPQPPHGHVLHRHMRTIREVRTLVTRVITDVYYVDGTEVERKVTEETEEPIVECQECETEVSPSQTGGSSGDLGDISSFSSKASSLHRTSSGTSLSAMHSSGSSGKGAGPLRGKTSGTEPADFALPSSRGGPGKLSPRKGVSQTGTPVCEEDGDAGLGIRQGGKAPVTPRGRGRRGRPPSRTTGTRETAVPGPLGIEDISPNLSPDDKSFSRVVPRVPDSTRRTDVGAGALRRSDSPEIPFQAAAGPSDGLDASSPGNSFVGLRVVAKWSSNGYFYSGKITRDVGAGKYKLLFDDGYECDVLGKDILLCDPIPLDTEVTALSEDEYFSAGVVKGHRKESGELYYSIEKEGQRKWYKRMAVILSLEQGNRLREQYGLGPYEAVTPLTKAADISLDNLVEGKRKRRSNVSSPATPTASSSSSTTPTRKITESPRASMGVLSGKRKLITSEEERSPAKRGRKSATVKPGAVGAGEFVSPCESGDNTGEPSALEEQRGPLPLNKTLFLGYAFLLTMATTSDKLASRSKLPDGPTGSSEEEEEFLEIPPFNKQYTESQLRAGAGYILEDFNEAQCNTAYQCLLIADQHCRTRKYFLCLASGIPCVSHVWVHDSCHANQLQNYRNYLLPAGYSLEEQRILDWQPRENPFQNLKVLLVSDQQQNFLELWSEILMTGGAASVKQHHSSAHNKDIALGVFDVVVTDPSCPASVLKCAEALQLPVVSQEWVIQCLIVGERIGFKQHPKYKHDYVSH

Variants of: B1
Assay: IP-MS (FLAG immunoprecipitation, MS/MS); HEK293T, 24 hr after transfection; read off a plot

Variant | screen value
chain 1 E142K | ~180
